Earlier results in PMC8062757.

Target: Myostatin (Gallus gallus) (UniProt O42220)
UniProt O42220, sequence (O42220 267-375): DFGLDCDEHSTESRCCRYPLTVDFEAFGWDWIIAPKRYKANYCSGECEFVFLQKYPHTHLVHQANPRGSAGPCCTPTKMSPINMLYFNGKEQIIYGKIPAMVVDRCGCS

In the case of Follistatin (from UniProt Q90844), the Kd is listed as 584 pM.
